Results taken from the nanobody polyreactivity screen of Harvey et al. (2022).

experiment: yeast display, Sf9 membrane polyspecificity reagent, FACS + sequencing; frameworks hold sequencing errors
Procedure, shortened: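 Synthetic nanobody libraries on Saccharomyces cerevisiae BJ5465 were galactose-induced for 36–48 hours, stained 1 hour at 4 °C with 10% biotinylated, detergent-solubilized Sf9 membrane reagent and enriched on streptavidin microbeads. FACS then separated cells into low and high (top ~1%) gates by anti-HA (expression) and streptavidin (reagent binding) fluorescence. Genes were colony-PCR amplified, MiSeq 2 × 250 sequenced and CDR-length filtered. A clone's polyreactivity label is that of its gate of origin.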

Sequence	polyreactivity (PSR sort gate)
QVQLVESGGGLVQAGGSLRLSCAPSGRTFRYYAMGWYRQAPGKERELVAAINWSGGSTYYADSVKGRFSISRDNAKNAVYLQKNSLKPEDTAVYYCAADEKMYITGYDYWGQGTQVTVSS	low polyreactivity
QVQLVESGGGLVQAGGSLRLSCAPSGRTFVYYAMGWYRQAPGKERELVASISSGGGSTNYADSVKGRFTISRDNAKNTVYLQMNSLKPEDTAVYYCAVDTPRYRYYRTSYDYWGQGTQGTVSS	low polyreactivity
QVQLVESGGGLVQAGGSLRLSCAPSGSIFDSNAMGWYRQAPGKERELVAAISSSGARTYYADSVKGRFTISRDNAKNTVYLQMNSLKPEDTAVYYCAARYAGGYYYWGQGTQVTVSS	high polyreactivity
QVQLVESGGGLVQAGGSLRLSCAPSGSIFPSNVMGWYRQAPGKERELVAAISNTGSTNYADSVKGRFTISRDNAKNTVYLQMNSLKPEDTAVYYCNGDASYGFWSLLDYDYWGQATQVTVSS	low polyreactivity
QVQLVESGGGLVQAGGSLRLSCAPSGSIFQSYAMGWYRQAPGKEREMVAAITRSGGRTYYADSVKGRFTISRDNAKNTVYLQMNSLKPEDTAVYYCAAFGWGYGYWGQGTQVTVSS	high polyreactivity
QVQLVESGGGLVQAGGSLRLSCAPSGSIFRKYAMGRYRQAPGKERELVAAIRSSGGSTYYADSVKGRFTISRDKAKNSVYFQLNSLKPEDTAVYYCAARYYRPSRYDYWGQGTQVTVSS	high polyreactivity
QVQLVESGGGLVQAGGSLRLSCAPSGSIFSYYDIGWYIQAPGKERELVAAISWDGGDRTYADSVKGRFTISRDNAKNTVYLQMTSLKPEDTAVYYFAAGWDASYGYDYWGQGTQLTVSS	low polyreactivity
QVQLVESGGGLVQAGGSLRLSCAPSGSIFVYYGMGWYRQAPRKERELVAAISSGGSTHYADSVKGRFTISRDNAKITVYLQMNSLKPEDTAVYYCAADRFFWLRSYPRYYYWGQGTQVTVSS	low polyreactivity
QVQLVESGGGLVQAGGSLRLSCAPSGSIFYVNAMGWYRQAPGKERELVAAITYDTGRTYYADSVKGRFTISRDNAKNTVYLQKNSLKPEDTAVYYCAVRPGYYWGYWPRFGYWGQGTQVTVSS	low polyreactivity
QVQLVESGGGLVQAGGSLRLSCAPSGSTFGFYAMGWYIQAPGKERELVAAISRGGSTNYADSVKGRFTISRDNAKNTVYLQMNSLKPEDTAVYYCAKAYHATSDYWGQGTQVTVSS	low polyreactivity
QVQLVESGGGLVQAGGSLRLSCAPSGSTFTYNAMGWYRQAPGKERELVASISSGTTTYYADSVKGRFTISRDNAKNTVYLQMNSLKPEDTAVYYCAVDSWSRVQGWLAHNYDYWGQGTQVTVSS	low polyreactivity
QVQLVESGGGLVQAGGSLRLSCAPSGSTFYIYAMGWYRQAPGKERELVAAISTTDGTTYYADSVKGRFTISRDNAKNTVYLQMNSLKPEDTAVYYCAAEWFGSVQPAYDYWGQGTQVTVSS	high polyreactivity
QVQLVESGGGLVQAGGSLRLSCAPSGYTYSDYAMGWYRQAPAKERELVAGITGGGGTYYADSVKGRFTISRDNAKNTVYLQMNSLKPEDTAVYYCAAGRRHGFGYWGQGTQVTVSS	low polyreactivity
QVQLVESGGGLVQAGGSLRLSCASSALIFYWYPIGWYRQAPGKESELVAAISYGGTTTSYADSVKGRFTISRDNATNTVYLQMNSLKPEDTAVYYCAADWLYGHFQITGYPVGVDYWGQGTQVTVSS	low polyreactivity
QVQLVESGGGLVQAGGSLRLSCASSARIFFWYTMGWYSQAPGKERELVAAITSSGNTNYADSVKGRFTISRDNAKNTVYLQMNSLKPEDTAVYYCATGSYSYYSLFDYWGQGTQVTVSS	low polyreactivity
QVQLVESGGGLVQAGGSLRLSCASSGFIFHTYAMGWYRQAPGKERELVAAISGGTSSTYYADSVKGRFTISRDNAKNTVYLQMKSLKPEDTAVYYCAARSRRGGYPRYFYWGQGTQVTVSS	high polyreactivity
QVQLVESGGGLVQAGGSLRLSCASSGFTFAYYAMGWYRQAPGKERELVAAISSRGGSTYADSVKGRFTISRDNAKNTVYLQMNSLKPEYTAVYYCNAVVPRSRYFSWTYDYWGQGTQVTVSS	high polyreactivity
QVQLVESGGGLVQAGGSLRLSCASSGFTFFYYAMGWYRQAPGKERELVAAISASGGSTSYADSVKGRFTISRDNAKNTVYLQMNSLKPEDTAVYYCAARVYSVRSGYYYWGQGTQVTVSS	high polyreactivity
QVQLVESGGGLVQAGGSLRLSCASSGFTFRYYAMGWYRQAPGKERELVAAITGNGGSTYYADSVKGRFTISRDNAKNTVYFQMNSLKPEDTAVYYCNKPYFTASGDRFGYWGQVTQVTVSS	high polyreactivity
QVQLVESGGGLVQAGGSLRLSCASSGFTFSVYAMGWYRQAPGKERELVAAITWRGGSTYYADSVKGRFTISRDNAKNTVYLQMNSLKPEDTAVYYCAVLYPKYGKRYGYWGQGTQVTVSS	high polyreactivity
QVQLVESGGGLVQAGGSLRLSCASSGFTFTYNVMGWYRQAPGKERELVAAISWSGTSTSYADSVKGRFTISRDNAKNTVYLQMNSLNPEDTAVYYCAVQRKSSKRAFRYGYWGQGTQVTVSS	high polyreactivity
QVQLVESGGGLVQAGGSLRLSCASSGFTFYYSMGLYRQAPVKERELVASINYSGGSTYYADSVKGRFTISRDNGKNTLYLQMNSLKAEETGVYYCAVDVRPRGLMYYWGQGTQVTVSS	low polyreactivity

Sequence	polyreactivity (PSR sort gate)
QVQLVESGGGLVQAGGSLRLSCASSGFTLYANAMGWYRQAPGKERELVADISESGSSTSYADSVKGRFTISRDNAKNTVYLQMKSLKPEDTAVYYCYDYWVQGTQVTVSS	low polyreactivity
QVQLVESGGGLVQAGGSLRLSCASSGGTFEVNAMGWYRQAPGKERELVAAIDTSDGSTYYADSVKGRFTISRDNAKNTVYFQMNSLKPEDTSVYYCAAERLFRFWYSAYERYDYWGQGTQVTVSS	low polyreactivity
QVQLVESGGGLVQAGGSLRLSCASSGGTFSPYAMVWYIQAPGKEREMVAVIRSDVTTNYADSVKGRFTISRDNAKNTLYLQMNRLKPEDTAVYYCAVQYLGYGGLFPLDYWGQGTQVTVSS	low polyreactivity
QVQLVESGGGLVQAGGSLRLSCASSGGTFVTNAMGWYRQAPAKERELVAAISYDGGITYYADSVKGRFTISRDNAKNTVYLKMNSLKPEDTAVYYGAAYRRYRNWFNYWGQGTQVTVSS	high polyreactivity
QVQLVESGGGLVQAGGSLRLSCASSGHIFTRNAMGWYIQAPGKERELVAAISRTGGSTYYADSVKGRFTISRDNAKNTVYLQMNSLKPEDTAVYYCNARGTYTSRRGYDYWGQGTQVTVSS	high polyreactivity
QVQLVESGGGLVQAGGSLRLSCASSGIIFSYNAMGWSRQAPGKERELVAAISSGGRTYYADSVKGRFTISRDNAKNTVYLQMKSLKPEDTAVYYCATTSPHRLYGYYYDYWGQGTQVTVSS	high polyreactivity
QVQLVESGGGLVQAGGSLRLSCASSGIIFTFNAKGWYRQAPGKERELVAAISGRGARTYYADSVKGRFTISRDNAKNTVYLKMKSLKPEDTAVYYCAAPSNSYRSLSNSYQYYYWGQGSQVTVSS	high polyreactivity
QVQLVESGGGLVQAGGSLRLSCASSGITFDYYDMGWYRQPPGKERELVAAISTGGGRTYYADSVKGRFTFSRDNAKNTVYLQMNSLKPEDTAVYYCAATYTRVPNRFYYWGQGTQVTVSS	high polyreactivity
QVQLVESGGGLVQAGGSLRLSCASSGITFRYYAMGWYRQAPGKERELVAAITWSGGSTYYADSVKGRFTISRDNAKNTVYLQMNSLKPEDTAVYYCAADAYVLFYGDWYEFDYWGQGTQVTVSS	high polyreactivity
QVQLVESGGGLVQAGGSLRLSCASSGITFSFYVMGWYRQAPGKERELVAAISRGGSTYYADSVKGRFTISRDNANNTVYLQMNSLKPEDSAVYYCAAVRLSRVYYWGQGTQVTVSS	high polyreactivity
QVQLVESGGGLVQAGGSLRLSCASSGLIFPYNAMGWYRKAPGKERELVAAIDSGVTTYYADSVKGRFTISRDNAKNTVYLQMNSLKPEDTAVYYCAAVGLPGPEGDSWGQGTQVTVSS	low polyreactivity
QVQLVESGGGLVQAGGSLRLSCASSGLIIDYYAMGWYRQAPGKERELVAAITSSSGITYYADSVKGRFTISRDNAKNTVYLQMNSLKPEDNAVYYCAAYTTYKLYEYAYWGQGTQVTVSS	low polyreactivity
QVQLVESGGGLVQAGGSLRLSCASSGNIFRYYVMGWYRKAPGKEREFVAAITSSGGSTYYADSVKGRFTISRDNAKNTVYFQINSLKPDDSEVYYCAKDYWDPGWAEYDYWGQCTQVTVSS	low polyreactivity
QVQLVESGGGLVQAGGSLRLSCASSGNIFYLYAKGWYRQARGKERELVAAIRGSGSTYYADSVKGRFTISRDNAKNTVYLQMNSLKPEDTAVYYCNARVRSQYLYSGTALGYYYWGQGTQVTVSS	high polyreactivity
QVQLVESGGGLVQAGGSLRLSCASSGPTFNEYAMAWYRQAPRKERELVARITRGGSTYYADSVKGRFTISRDNAKNTFYFQINSLIPEDTAVYEFAADLSLLYGGYWITDYDYWVQGTQVTVSS	low polyreactivity
QVQLVESGGGLVQAGGSLRLSCASSGRIFAHNAMGWYSQAPGKERELVAAINSGGSTDYADSVKGRFTISRDNAKNTVYLQMNSLKPEDTAVYYCAADDPGSFPDDSWGQGTQGTVSS	low polyreactivity
QVQLVESGGGLVQAGGSLRLSCASSGRIFFKYAMGWYRQARGKERELLATITWRGSSTYYADSVKWRFTISRDNAKNTVYFQMNSLKPEDTAVYYCAAVAAWWYHQGVRYDYWGQGSQVTVSS	high polyreactivity
QVQLVESGGGLVQAGGSLRLSCASSGRIFRWYAMGWYRQAPGKERELVAAISRSGTSTYYADSVKGRFTISRDNAKNTVFLQMNSLKPEDTAVYYCNTDVQVYSYNYWGQGTQVTVSS	low polyreactivity
QVQLVESGGGLVQAGGSLRLSCASSGRIFSGNAMAWYRQAPGKEMEFVASISRSGGRTRYADSVKGRFTISRDNAKNTVYLQMNSLKPEDTAVYYCAADRSRRGHLTHGYWGQGTQVTVSS	high polyreactivity
QVQLVESGGGLVQAGGSLRLSCASSGRIFSQNAMGWYRQAPGKERELVAAISGGSTNYADSVKGRFTISRDNAKNPVYLQMNSLKPEDTAVYYCAADAPFKMDYWGQGTQVTVSS	low polyreactivity
QVQLVESGGGLVQAGGSLRLSCASSGRISASYAMGWYRQAPGKERELVAAITGSGGSTYYADSVKGRFTISRDNAKNTVYLQMNSLKPEDTAVYYCAAEPGLSVFFEFDSWGQGTQVTVSS	low polyreactivity
